For three molecules, binding result and Kd results are on record in PMC7522082, “A simple procedure for bacterial expression and purification of the fragile X protein family”.

The target of series [1] is T1, His6-MBP-FMRP P451S (Homo sapiens, UniProt Q06787 1-632, P451S). Nature of the series: EMSA; 250 nM protein; FA: 20 mM Tris pH 7.5, 75 mM KCl, 5 mM MgCl2, 1 uM BSA, 1 mM DTT, 100 ng/uL tRNA, ~5 nM RNA, RT 1 h; EMSA: 50 mM Tris pH 7.5, 145 mM KCl, 5 mM MgCl2, 1 uM BSA.
Series [2] deals with T2, His6-MBP-FXR2P P474S and P493N (Homo sapiens, UniProt P51116 1-673, P474S;P493N). The description is as above. The conditions noted are these: protein: recombinant, tags: N-terminal His6-MBP.
T2 sequence (P51116 whole entry P474S/P493N): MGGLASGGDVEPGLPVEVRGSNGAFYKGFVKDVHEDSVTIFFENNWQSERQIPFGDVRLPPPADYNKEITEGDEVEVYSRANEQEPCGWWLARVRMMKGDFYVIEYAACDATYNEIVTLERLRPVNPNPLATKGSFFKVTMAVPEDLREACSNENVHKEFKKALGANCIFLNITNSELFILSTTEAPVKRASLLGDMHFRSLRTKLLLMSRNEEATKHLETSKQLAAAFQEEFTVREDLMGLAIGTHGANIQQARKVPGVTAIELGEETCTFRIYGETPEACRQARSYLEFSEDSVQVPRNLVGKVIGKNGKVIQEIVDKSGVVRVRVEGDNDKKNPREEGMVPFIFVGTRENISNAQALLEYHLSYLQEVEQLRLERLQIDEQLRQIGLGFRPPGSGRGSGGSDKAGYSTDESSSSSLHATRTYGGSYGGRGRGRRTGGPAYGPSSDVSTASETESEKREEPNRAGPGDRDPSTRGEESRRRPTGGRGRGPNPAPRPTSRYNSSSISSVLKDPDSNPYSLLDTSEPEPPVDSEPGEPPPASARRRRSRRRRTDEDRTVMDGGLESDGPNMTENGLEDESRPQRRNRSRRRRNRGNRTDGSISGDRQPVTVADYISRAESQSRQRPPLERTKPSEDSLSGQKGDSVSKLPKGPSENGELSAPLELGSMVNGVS
Series [3] has as its target T1, His6-MBP-FMRP P451S. Nature of the series: fluorescence anisotropy; 75 mM K+, 5 mM Mg2+; FA: 20 mM Tris pH 7.5, 75 mM KCl, 5 mM MgCl2, 1 uM BSA, 1 mM DTT, 100 ng/uL tRNA, ~5 nM RNA, RT 1 h; EMSA: 50 mM Tris pH 7.5, 145 mM KCl, 5 mM MgCl2, 1 uM BSA.
The target of series [4] is T2, His6-MBP-FXR2P P474S and P493N. The series is described as above. The conditions noted are these: protein: recombinant; tags: N-terminal His6-MBP; label: 3' fluorescein; G-quadruplex forming.

B1: ΔKC2 (structured_RNA)
RNA: GGGCGAAUUCGGGAUUCCGACCAGAAGGGGCUAAGGAAUGGUGGGACGAGCUAGCGGCUGGUAUGUGCGUCU
For the molecule B1, the binding result with His6-MBP-FMRP P451S [1] is reported as “binds”; in series [2] (label: 3' fluorescein (FTSC, periodate-oxidized 3' end), loop-loop pseudoknot (kissing complex)), “binds”.
On to GGGGGGGGGGGGGGGGGU (structured_RNA) [poly-G17U], for which the figures for the Kd (with His6-MBP-FMRP P451S [3]; in series [4]) were 5.6 nM and 3.1 ± 0.4 nM, respectively.
Regarding GCUAUCCAGAUUCUGAUU (ssRNA) [CR1], the binding result in the series with His6-MBP-FMRP P451S [1] was “no binding”; in series [2] (label: 3' fluorescein, single strand, no predicted G-quadruplex) it was “no binding”.
